Measurements from article doi:10.1101/2024.10.30.620795 (2024).

Target: T1, A*01/LTD peptide on A*01/LTD (human)
T1 peptide: LTDEMIAQY
Experiment: activation reporter or marker

Row | Binder | binding result
1 | 1690 (TCR) alpha TRAV8-4 TRAJ10 CDR3: CAVSDLRVLTGGGNKLTF beta TRBV7-9 TRBJ2-1 CDR3: CASSLALAGRNYNEQFF | no recognition
2 | 99 (TCR) alpha TRAV5 TRAJ24 CDR3: CAERRGKLQF beta TRBV15 TRBJ2-5 CDR3: CATSRGPGGSKAGETQYF | recognises

Target: T2, A*02/YLQ peptide on A*02/YLQ (human)
T2 peptide: YLQPRTFLL
Experiment: activation reporter or marker

Row | Binder | binding result
3 | 10749 (TCR) alpha TRAV12-1 TRAJ20 CDR3: CVVNKEDKLSF beta TRBV20-1 TRBJ2-2 CDR3: CSARDLLAANTGELFF | recognises
4 | 9973 (TCR) alpha TRAV39 TRAJ54 CDR3: CAVDSSFQGAQKLVF beta TRBV6-2 TRBJ2-7 CDR3: CASSLPDSYEQYF | no recognition
5 | 6579 (TCR) alpha TRAV12-1 TRAJ10 CDR3: CVVNSPEGGGNKLTF beta TRBV7-2 TRBJ1-1 CDR3: CASSSLNSLEAFF | recognises
6 | 7411 (TCR) alpha TRAV12-1 TRAJ45 CDR3: CVVNRADGLTF beta TRBV12-3 TRBJ2-2 CDR3: CASTDGNTGELFF | recognises
7 | 9825 (TCR) alpha TRAV12-1 TRAJ43 CDR3: CVVNELDDMRF beta TRBV5-1 TRBJ2-2 CDR3: CASAGPNTGELFF | recognises
8 | 5766 (TCR) alpha TRAV12-1 TRAJ43 CDR3: CVVNMYDDMRF beta TRBV5-1 TRBJ2-2 CDR3: CASIDSNTGELFF | recognises
9 | 6688 (TCR) alpha TRAV12-1 TRAJ36 CDR3: CVVNKEDNLFF beta TRBV9 TRBJ2-2 CDR3: CASSGGIETSGNTGELFF | recognises
10 | 3695 (TCR) alpha TRAV12-1 TRAJ20 CDR3: CVVNWYDYKLSF beta TRBV30 TRBJ2-2 CDR3: CAWINDQNTGELFF | recognises

Target: T3, A*24/QYI peptide on A*24/QYI (human)
T3 peptide: QYIKWPWYI
Experiment: activation reporter or marker

Row | Binder | binding result
11 | 84 (TCR) alpha TRAV8-3 TRAJ24 CDR3: CAVGLTDSWGKLQF beta TRBV5-8 TRBJ2-1 CDR3: CASSLAIRGIIDNEQFF | no recognition
12 | 96 (TCR) alpha TRAV38-1 TRAJ57 CDR3: CAFSPGGSEKLVF beta TRBV5-1 TRBJ2-7 CDR3: CASSLGRFLRGDWDYEQYF | no recognition
